In this assay the target is BLM (Bloom's syndrome helicase), purified recombinant (human, UniProt P54132 1-1417). The experiment in a line: far-Western, overlay or dot blot.
Chain of BLM (Bloom's syndrome helicase), purified recombinant (P54132 whole entry): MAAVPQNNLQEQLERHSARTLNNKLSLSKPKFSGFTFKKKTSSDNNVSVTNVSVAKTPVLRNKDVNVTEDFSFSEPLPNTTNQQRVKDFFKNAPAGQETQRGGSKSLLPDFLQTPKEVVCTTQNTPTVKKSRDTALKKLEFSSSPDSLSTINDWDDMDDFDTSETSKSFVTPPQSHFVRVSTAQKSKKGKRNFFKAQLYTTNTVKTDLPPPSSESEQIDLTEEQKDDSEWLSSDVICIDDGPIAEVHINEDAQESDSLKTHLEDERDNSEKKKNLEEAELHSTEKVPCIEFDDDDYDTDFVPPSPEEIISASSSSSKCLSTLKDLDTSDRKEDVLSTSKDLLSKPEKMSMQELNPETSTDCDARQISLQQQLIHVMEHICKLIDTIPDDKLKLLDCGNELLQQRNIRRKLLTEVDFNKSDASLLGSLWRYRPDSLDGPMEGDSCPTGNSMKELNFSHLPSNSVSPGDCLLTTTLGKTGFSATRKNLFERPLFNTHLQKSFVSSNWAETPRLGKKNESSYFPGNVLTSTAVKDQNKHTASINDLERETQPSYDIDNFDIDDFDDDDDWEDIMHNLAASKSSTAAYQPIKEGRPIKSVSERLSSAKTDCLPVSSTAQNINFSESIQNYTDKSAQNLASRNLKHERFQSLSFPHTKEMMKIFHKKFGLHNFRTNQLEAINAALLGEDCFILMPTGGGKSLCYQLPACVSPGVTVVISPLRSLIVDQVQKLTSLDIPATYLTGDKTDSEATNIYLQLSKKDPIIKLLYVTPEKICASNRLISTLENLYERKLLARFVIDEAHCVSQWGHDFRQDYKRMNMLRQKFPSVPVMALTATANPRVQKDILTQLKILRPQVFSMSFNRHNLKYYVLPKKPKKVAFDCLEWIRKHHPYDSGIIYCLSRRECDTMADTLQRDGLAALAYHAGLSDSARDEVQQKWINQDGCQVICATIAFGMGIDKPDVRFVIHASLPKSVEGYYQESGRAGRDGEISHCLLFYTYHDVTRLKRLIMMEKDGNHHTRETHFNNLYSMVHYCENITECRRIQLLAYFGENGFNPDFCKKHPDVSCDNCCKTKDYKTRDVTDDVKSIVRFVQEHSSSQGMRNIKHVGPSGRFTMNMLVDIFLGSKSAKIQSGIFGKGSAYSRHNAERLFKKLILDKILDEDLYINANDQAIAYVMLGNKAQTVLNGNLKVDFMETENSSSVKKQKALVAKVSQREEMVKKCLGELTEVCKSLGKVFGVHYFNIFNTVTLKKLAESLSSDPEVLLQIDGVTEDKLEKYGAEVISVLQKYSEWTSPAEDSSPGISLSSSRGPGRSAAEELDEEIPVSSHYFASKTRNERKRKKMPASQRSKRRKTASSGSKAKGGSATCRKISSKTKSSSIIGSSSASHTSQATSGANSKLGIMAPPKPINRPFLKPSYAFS

B1: p12 subunit of the purified four-subunit hPOL δ enzyme (natural protein, human, UniProt Q9HCU8 1-107, looked up)
chain: MGRKRLITDSYPVVKRREGPAGHSKGELAPELGEEPQPRDEEEAELELLRQFDLAWQYGPCTGITRLQRWCRAKQMGLEPPPEVWQVLKTHPGDPRFQCSLWHLYPL
For B1, the binding result is “binds”.

B2: 6xHis-p12 protein (p12, smallest subunit of human DNA polymerase δ), purified recombinant (natural protein, UniProt Q9HCU8 1-107, looked up)
chain: B1 chain
As to B2, the binding result is “binds”.

For the origin of these results see paper PMC2532730 (Nucleic Acids Research, 2008).
